Measured values taken from US10792311B2, “Stimulation of ovarian follicle development and oocyte maturation” (The Board of Trustees of the Leland Stanford Junior …, priority 2011, dated 2020).

Legend:
[1] = tested on: preantral follicles; test: Preantral follicle culture; type: cell-based, mice; conditions: preantral follicles of day 13 mice, four days
From the text: CNP treatment promoted the growth of preantral follicles and cultured ovarian explants: Preantral follicles (125-135 um in diameter) were isolated from ovaries of mice at day 13 of age and treated with different hormones for four days with daily monitoring of follicle diameters. […] In contrast, treatment with ANP was ineffective.
Dissection follicles of different sizes and culturing of preantral follicles: For RT-PCR analyses, early secondary follicles of 90-140 um in diameters were isolated from mice at day 13 of age whereas antral follicles (300-400 um in diameter) were isolated from prepubertal mice at day 23 of age. Preovulatory follicles (500-600 um in diameter) were isolated from prepubertal mice treated with eCG (5 IU). For follicle cultures, preantral follicles (125-145 um in diameter) were isolated from mice at day 13 of age and cultured individually in 96 well plates containing alpha-MEM (100 ul/well) with penicillin and streptomycin together with insulin, transferrin and selenium. […] The media were changed every two days and follicle growth was monitored daily by measuring follicle diameters.

[2] = tested on: ovaries from day 10 mice; test: Ovarian explant cultures treated with CNP and/or FSH; type: cell-based
Experimental: Ovarian explant cultures: Ovaries from day 10 mice were placed on culture plate inserts (Millipore, Bedford, Mass.) and cultured in 400 μl of DMEM/F12 containing 0.1% BSA (Sigma), 0.1% Albumax II, insulin-transferrin-selenium, 0.05 mg/ml L-ascorbic acid and penicillin-streptomycin under the membrane insert to cover ovaries with a thin layer of medium. […] Some explants were also treated with a pan-specific protein kinase G inhibitor, Rp-8-Br-PET-cGMPS (BioLog, Bremen, Germany). At the end of culture, ovaries were fixed in Bouin's solution, paraffin embedded, and cut into continuous sections before staining with hematoxylin and eosin.

[3] = tested on: somatic cells obtained from day 10 ovaries; test: Cell proliferation (MTS) assay of ovarian somatic cells; type: cell-based, mice; conditions: for MTS activity (viable cell number): agent alone, 2 days
Experimental: Cell proliferation assay: Ovaries obtained from day 10 mice were digested with collagenase I, DNase, and trypsin. After centrifuging at 270×g for 10 min., cell pellet was washed and plated in a 96-well plate (BD Falcon, Franklin Lakes, N.J.) in McCoy's 5a medium (Gibco BRL, Grand Island, N.Y.) containing 4 mg/ml BSA (Sigma Aldrich Chemicals, St. Louis, Mo.), penicillin-streptomycin (Gibco) and sodium pyruvate (Gibco) for 3 h at 37 C. After washing twice with PBS to remove floating oocytes, cells were cultured in serum-free McCoy's 5a medium containing different factors for 48 h. MTS (3-(4,5-dimethylthiazol-2-yl)-5-(3-carboxymethoxyphenyl)-2-(4-sulfophenyl)-2H-tetrazolium) assay was performed using Cell Titer 96 Aqueous One Solution Cell Proliferation Assay (Promega, Madison, Wis.) by adding the substrate for 2 h before measuring absorbance at 490 nm.

[4] = tested on: canonical Wnt signaling pathway; test: TCF-luciferase assay in cultured ovarian somatic cells; type: cell-based; conditions: somatic cells of day 10 mice; for TCF-luciferase activity: agent alone
Experimental: TCF-luciferase assay: Ovarian somatic cells from day 10 mice were cultured overnight at 37 C in McCoy's 5a medium containing 10% fetal bovine serum (FBS; Gibco) before evaluation of Wnt signaling based on the TCF-luciferase assay. Cells were transfected with 1 μg of pTOP FLASH or pFOP FLASH plasmid together with 0.1 μg of pRL-TK plasmid using lipofectamine 2000 (Invitrogen, Carlsbad, Calif.) for 6 h. […] Luciferase activity expressed as relative light unit was determined using a Dual Luciferase Reporter Assay Kit (Promega) with a luminometer (Bio-Rad).
Luciferase activity was measured as an index of Wnt signaling. […] To estimate the number of viable cells, cells were also cultured with increasing doses of R-spondin2 with or without Wnt3a before measurement of mitochondrial reductase (MTS) activity.

[5] = tested on: ovaries from day 10 mice; test: Ovarian explant cultures treated with R-spondin2 and/or FSH; type: cell-based
Experimental: Ovarian explant cultures: Ovaries from day 10 mice were placed on culture plate insert (Millipore, Bedford, Mass.) and cultured in 400 μl of DMEM/F12 (Gibco) containing 0.1% BSA (Sigma), 0.1% Albumax II (Gibco), insulin-transferrin-selenium (Gibco), 0.05 mg/ml L-ascorbic acid (Sigma) and penicillin-streptomycin (Gibco) under the membrane insert to cover ovaries with a thin layer of medium. […] Explants treated with non-immune IgG or boiled (100 C, 15 min) R-spondin2 antibodies served as negative controls. At the end of culture, ovaries were fixed in Bouin's solution, paraffin embedded, and cut into continuous sections before staining with hematoxylin and eosin. Only follicles with clearly stained oocyte nucleus were counted to prevent recounting of the same follicle.

[6] = tested on: intestinal stem cell; conditions: 100 μg/adult mice; cited from earlier work
[7] = treatment with R-spondin2 and/or FSH

Nc1nc2c(nc(Br)n2[C@@H]2O[C@@H]3COP(=O)(O)O[C@H]3[C@H]2O)c(=O)[nH]1 [8-bromo-cGMP, reference compound]
Follicle size (diameter) [1]: induced

CC[C@H](C)[C@@H]1NC(=O)[C@H](CCCNC(=N)N)NC(=O)[C@H](CC(=O)O)NC(=O)[C@H](CCSC)NC(=O)[C@H](CCCNC(=N)N)NC(=O)CNC(=O)CNC(=O)[C@H](Cc2ccccc2)NC(=O)[C@@H](NC(=O)[C@H](CO)NC(=O)[C@H](CO)NC(=O)[C@H](CCCNC(=N)N)NC(=O)[C@H](CCCNC(=N)N)NC(=O)[C@H](CC(C)C)NC(=O)[C@@H](N)CO)CSSC[C@@H](C(=O)N[C@@H](CC(N)=O)C(=O)N[C@@H](CO)C(=O)N[C@@H](Cc2ccccc2)C(=O)N[C@@H](CCCNC(=N)N)C(=O)N[C@@H](Cc2ccc(O)cc2)C(=O)O)NC(=O)CNC(=O)[C@H](CC(C)C)NC(=O)CNC(=O)[C@H](CO)NC(=O)[C@H](CCC(N)=O)NC(=O)[C@H](C)NC(=O)CNC1=O [ANP, reference compound]
Ovarian weights of explants ([2]; day 10 ovaries, 4 days culture): not
Follicle size (diameter) [1]: ineffective

O=c1c2nc(Br)n([C@@H]3O[C@@H]4CO[P@@](O)(=S)O[C@H]4[C@H]3O)c2nc2[nH]c(-c3ccccc3)cn12 [Rp-8-Br-PET-cGMPs, Rp-8-Br-PET-cGMPS, reference compound]
Effect on stimulatory effects of CNP on ovarian weight ([2]; explant culture): blocked the stimulatory effects of CNP
Effect on effects of a high dose of FSH on ovarian weight ([2]; explant culture, FSH 100 ng/ml): partially suppressed the effects of a high dose of FSH

B1: Wnt3a: Wnt ligand (protein, UniProt P56704 19-352, looked up)
Protein Wnt-3a: SYPIWWSLAVGPQYSSLGSQPILCASIPGLVPKQLRFCRNYVEIMPSVAEGIKIGIQECQHQFRGRRWNCTTVHDSLAIFGPVLDKATRESAFVHAIASAGVAFAVTRSCAEGTAAICGCSSRHQGSPGKGWKWGGCSEDIEFGGMVSREFADARENRPDARSAMNRHNNEAGRQAIASHMHLKCKCHGLSGSCEVKTCWWSQPDFRAIGDFLKDKYDSASEMVVEKHRESRGWVETLRPRYTYFKVPTERDLVYYEASPNFCEPNPETGSFGTRDRTCNVSSHGIDGCDLLCCGRGHNARAERRREKCRCVFHWCCYVSCQECTRVYDVHTCK
MTS activity (viable cell number) [3]: stimulated MTS activity in a dose-dependent manner
TCF-luciferase activity ([4]; 18 h): minimal stimulation

B2: R-spondin2: secreted protein that regulates beta-catenin; oocyte-derived paracrine factor; recombinant human R-spondin2 (protein, UniProt Q6UXX9 22-243, looked up)
R-spondin-2: QGNRWRRSKRASYVSNPICKGCLSCSKDNGCSRCQQKLFFFLRREGMRQYGECLHSCPSGYYGHRAPDMNRCARCRIENCDSCFSKDFCTKCKVGFYLHRGRCFDECPDGFAPLEETMECVEGCEVGHWSEWGTCSRNNRTCGFKWGLETRTRQIVKKPVKDTILCPTIAESRRCKMTMRHCPGGKRTPKAKEKRNKKKKRKLIERAQEQHSVFLATDRANQ
MTS activity (viable cell number) [3]: stimulated MTS activity in a dose-dependent manner
MTS activity with both Wnt3a and R-Spondin2 ([3]; combined with Wnt3a): further increases in MTS activity
Ovarian follicle development (morphological analyses) ([5]; 4 days culture): promotion of ovarian follicle development
Ovarian weight of explants, R-spondin2 and FSH added together ([5]; 4 days culture, combined with FSH): further increases
Ovarian weight of explants ([5]; day 10 ovaries, 4 days culture): increased ovarian weight in a dose-dependent manner
Percentage of primordial and degenerated follicles [5, 7]: negligible changes
Ratio of primary and percentage of secondary follicles [5, 7]: decreased the ratio of primary follicles accompanied by increases in the percentage of secondary follicles
TCF-luciferase activity in the presence of both Wnt3a and R-spondin2 ([4]; 18 h, combined with Wnt3a): synergistic increases
TCF-luciferase activity ([4]; 18 h): minimal stimulation

B3: DKK1: Dickkopf1, a Wnt signaling antagonist (protein, UniProt O94907 32-266, looked up)
Dickkopf-related protein 1: TLNSVLNSNAIKNLPPPLGGAAGHPGSAVSAAPGILYPGGNKYQTIDNYQPYPCAEDEECGTDEYCASPTRGGDAGVQICLACRKRRKRCMRHAMCCPGNYCKNGICVSSDQNHFRGEIEETITESFGNDHSTLDGYSRRTTLSSKMYHTKGQEGSVCLRSSDCASGLCCARHFWSKICKPVLKEGQVCTKHRRKGSHGLEIFQRCYCGEGLSCRIQKDHHQASNSSRLHTCQRH
Effect on stimulatory effects of FSH on ovarian growth ([5]; explant cultures): not blocked
Effect on R-spondin2- and Wnt3a-stimulated TCF-luciferase activity [4]: blocked the stimulatory effects

B4: R-spondin1: secreted glycoprotein of the R-spondin family that synergizes with Wnts to activate β-catenin-dependent signaling (protein, UniProt Q2MKA7 21-263, looked up)
R-spondin-1: SRGIKGKRQRRISAEGSQACAKGCELCSEVNGCLKCSPKLFILLERNDIRQVGVCLPSCPPGYFDARNPDMNKCIKCKIEHCEACFSHNFCTKCKEGLYLHKGRCYPACPEGSSAANGTMECSSPAQCEMSEWSPWGPCSKKQQLCGFRRGSEERTRRVLHAPVGDHAACSDTKETRRCTVRRVPCPEGQKRRKGGQGRRENANRNLARKESKEAGAGSRRRKGQQQQQQQGTVGPLTSAGPA
Intestinal stem cell proliferation and intestinal growth [6]: stimulate intestinal stem cell proliferation and intestinal growth
